Reference: US20040106134A1 (Regeneron, published 2004)

Key:
mouse Nodal = target: T1, mouse Nodal (mouse, UniProt P43021 245-354, limits assumed, 35S-labelled); experiment: co-immunoprecipitation with anti-myc 9E10 beads, 35S-labelled Nodal
T1 construct: Provided as 35S-labelled protein expressed in X. laevis oocytes; also called mBMP-16; 35S-mouse Nodal
T1 sequence (looked up): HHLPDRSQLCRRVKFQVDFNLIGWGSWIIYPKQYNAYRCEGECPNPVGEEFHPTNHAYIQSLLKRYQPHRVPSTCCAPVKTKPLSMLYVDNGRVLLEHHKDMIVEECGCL
Protocol: (§1) Human DCR5-myc3 (1 ml of COS7 cell-derived serum-free conditioned media described supra) was co-incubated with human BMP-2 (1 μg/ml), or human BMP-4 (0.5 μg/1 ml) (R&D Systems), or human BMP-5 ([…]) (R&D Systems), or mouse Nodal (also known as mBMP-16; provided as ³⁵S-mouse Nodal expressed in X. laevis oocytes), or human BMP-11 (also known as human GDF-11; provided as ³⁵S-human BMP-11 expressed in X. laevis oocytes), in the absence or in the presence of human noggin protein hNGAB2 (described in published PCT application publication no. WO 99/03996, published Jan. 28, 1999, and incorporated in its entirety herein by reference), 2 to 5 μg/ml. The formation of a stable complex between human DCR5-myc3 and the different BMP family members was determined by immunoprecipitating human DCR5-myc3 and associated proteins using the anti-myc monoclonal antibody (9E10; 1 μg/ml) bound to Protein A Ultralink (Pierce). The binding reaction was carried out in the serum-free conditioned media containing 20 mM Tris pH 7.6, 150 mM NaCl, 0.1% Tween 20 (TBST), and 1 mg/ml bovine serum albumin (BSA). Binding was allowed to proceed for 1 hour at 25° C. in a reaction volume of 1.1 ml, with continuous mixing to keep the Protein A-Ultralink (Pierce) in suspension. […]

human BMP-5 = target: T2, human BMP-5 (human, UniProt P22003 317-454, limits assumed); experiment: co-immunoprecipitation with anti-myc 9E10 beads, western blot
T2 construct: Bought from R&D Systems
T2 sequence (looked up): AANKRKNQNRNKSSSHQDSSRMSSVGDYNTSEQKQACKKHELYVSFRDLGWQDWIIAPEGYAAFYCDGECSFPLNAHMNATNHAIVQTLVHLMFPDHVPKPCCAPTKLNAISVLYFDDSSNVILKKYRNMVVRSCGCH
Protocol: as §1

human BMP-11 = target: T3, human BMP-11 (human, UniProt O95390 299-407, limits assumed, 35S-labelled); experiment: co-immunoprecipitation with anti-myc 9E10 beads, 35S-labelled BMP-11
T3 construct: Provided as 35S-labelled protein expressed in X. laevis oocytes; also called human GDF-11; GDF-11
T3 sequence (looked up): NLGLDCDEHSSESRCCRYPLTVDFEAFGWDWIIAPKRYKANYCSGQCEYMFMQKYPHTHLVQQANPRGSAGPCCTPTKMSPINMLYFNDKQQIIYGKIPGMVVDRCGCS
Protocol: as §1

binding result (mouse Nodal): no binding
binding result (human BMP-11): no binding
B1: human DCR5-myc3 (other)
chain: RKNRPAGAIPSPYKDGSSNNSERWQHQIKEVLASSQEALVVTERKYLKSDWCKTQPLRQTVSEEGCRSRTILNRFCYGQCNSFYIPRHVKKEEESFQSCAFCKPQRVTSVLVELECPGLDPPFRLKKIQKVKQCRCMSVNLSDSDKQTGEQKLISEEDLGGEQKLISEEDLGGEQKLISEEDLGP
notes: Used as serum-free conditioned medium of transiently transfected COS7 cells; also called Human DCR5-myc3 protein; hDCR-5
binding result (human BMP-5): no binding (tested: 1 g/ml (so in the source))
